Measured values taken from patent US20050169909A1 (TANOX, published 2005).
Where two headings read alike, the source gives them in different places.

Tests used:
[1] = molecular target: T1, recombinant human IgE, SE44 (human, UniProt P01854-1 1-428); test: ELISA titration of Fab on plate-coated SE44 (Example 6)
T1 construct: The IgE used as antigen in the ELISA screens (coated, or biotinylated); also called monoclonal human IgE (SE44); biotinylated SE44
Procedure: (§1) The constructed library was subjected to an ELISA screen for improved binding to the recombinant human IgE, SE44. Clones with binding affinity greater than murine TES-C21 Fab were isolated and sequenced. Clone ID #4, 49, 72, 76, and 136 were further characterized.
(§2) Plates were coated with 0.25 ug/mL (for purified Fab 0.1 ug/ml) SE44 in carbonate coating buffer overnight at 4° C. Coating solution was removed and the plates were blocked with 200 uL/well 3% BSA/PBS for 1 hour at 37° C.

human IgE [2] = molecular target: T2, human IgE (human, UniProt P01854-1 1-428); test: relative to parent TES-C21
T2 construct: it may be SE44; also called intact human IgE; biotinylated IgE
T2 sequence (P01854 other isoform, or with tags, fused parts or gaps): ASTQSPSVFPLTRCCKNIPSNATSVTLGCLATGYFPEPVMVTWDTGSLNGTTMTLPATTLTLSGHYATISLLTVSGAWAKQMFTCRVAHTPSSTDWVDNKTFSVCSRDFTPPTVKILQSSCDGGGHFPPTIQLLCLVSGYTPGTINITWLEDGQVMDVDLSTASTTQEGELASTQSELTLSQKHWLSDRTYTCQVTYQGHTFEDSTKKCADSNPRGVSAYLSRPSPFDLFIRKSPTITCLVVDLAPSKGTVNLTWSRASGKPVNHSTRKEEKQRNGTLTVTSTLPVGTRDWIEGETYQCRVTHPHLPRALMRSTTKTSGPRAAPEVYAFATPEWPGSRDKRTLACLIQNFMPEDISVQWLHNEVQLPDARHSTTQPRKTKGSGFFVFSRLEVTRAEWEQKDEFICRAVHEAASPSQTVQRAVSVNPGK

human IgE [3] = molecular target: T2, human IgE; test: method not stated at the table (Example 10 lists Biacore analysis); target IgE taken from context
human IgE [4] = molecular target: T2, human IgE; test: soluble receptor assay: inhibition of the binding of biotinylated IgE to plate-coated FcεRI alpha chain (Example 8)
Procedure: A 96 well assay plate suitable for ELISA was coated with 0.05 mL 0.5 μg/mL FcεRI alpha-chain receptor coating buffer (50 mM carbonate/bicarbonate, pH 9.6) for 12 hours at 4-8° C. The wells were aspirated and 25 μL blocking buffer (PBS, 1% BSA, pH 7.2) was added and incubated for 1 hour at 37° C. In a separate assay plate the samples and reference TES-C21 MAbs were titered from 200 to 0.001 μg/mL by 1:4 dilutions with assay buffer (0.5% BSA and 0.05% Tween 20, PBS, pH 7.2) and an equal volume of 100 ng/mL biotinylated IgE was added and the plate incubated for 2-3 hours at 25° C. The FcεRI—coated wells were washed three times with PBS and 0.05% TWEEN 20 and 50 μL from the sample wells were transferred and incubated with agitation for 30 minutes at 25° C. Fifty/μL/well of 1 mg/mL Streptavidin-HRP, diluted 1:2000 in assay buffer, was incubated for 30 minutes with agitation and then the plate was washed as before. Fifty μL/well of TMB substrate was added and color was developed. The reaction was stopped by adding an equal volume of 0.2 M H₂SO₄ and the absorbance measured at 450 nm.

[5] = molecular target: T1, recombinant human IgE, SE44; test: ELISA titration of Fab on plate-coated SE44 (Example 6); remark: listed apart in the source
Procedure: as §1, §2

T1 sequence (P01854 other isoform, or with tags, fused parts or gaps): as above

| Binder | EC50 (read off the curve) [1] | Fold Increase in Binding Affinity (human IgE [2]) | Kd (human IgE [3]) | IC50 (read off the curve) (human IgE [4]) | EC50 (read off the curve) [5] |
| --- | --- | --- | --- | --- | --- |
| humanized TES-C21 Fab clone 136 (Fab, V domains shown, Retains 5 murine heavy chain framework residues; light chain framework is 100% human; also called Clone ID #136; Humanized clone 136) VH: QVQLVQSGAEVMKPGSSVKVSCKASGYTFSMYWLEWVRQAPGHGLEWMGEISPGTFTTNYNEKFKARVTFTADTSTSTAYMELSSLRSEDTAVYYCARFSHFSGSNYDYFDYWGQGTLVTVSS VL: EIVMTQSPATLSVSPGERATLSCRASQSIGTNIHWYQQKPGQAPRLLIYYASESISGIPARFSGSGSGTEFTLTISSLQSEDFAVYYCQQSDSWPTTFGGGTKVEIK | ~0.04 µg/mL | – | – | – | – |
| Anti-IgE CL-2C (antibody, V domains shown, ATCC PTA-5678; also called MAb 2 (CL-2C); clone 2C) VH: QVQLVQSGAEVMKPGSSVKVSCKASGYTFSWYWLEWVRQAPGHGLEWMGEIDPGTFTTNYNEKFKARVTFTADTSTSTAYMELSSLRSEDTAVYYCARFSHFSGSNYDYFDYWGQGTLVTVSS VL: EIVMTQSPATLSVSPGERATLSCRASQSIGTNIHWYQQKPGQAPRLLIYYASESISGIPARFSGSGSGTEFTLTISSLQSEDFAVYYCQQSWSWPTTFGGGTKVEIKT | – | 417 fold | 1.47 pM | ~0.3 µg/mL | – |
| Anti-IgE CL-5A (antibody, V domains shown, ATCC PTA-5679; also called MAb 1(CL-5A); clone 5A) VH: QVQLVQSGAEVMKPGSSVKVSCKASGYTFSWYWLEWVRQAPGHGLEWMGEIEPGTETTNYNEKFKARVTFTADTSTSTAYMELSSLRSEDTAVYYCARFSHFSGSNYDYFDYWGQGTLVTVSS VL: EIVMTQSPATLSVSPGERATLSCRASQSIGTNIHWYQQKPGQAPRLLIYYASESISGIPARFSGSGSGTEFTLTISSLQSEDFAVYYCQQSWSWPTTFGGGTKVEIKT | – | 3890 fold | 0.158 pM | – | – |
| Anti-IgE CL-5I (antibody, V domains shown, ATCC PTA-5680; also called MAb 3 (CL-5I)) VH: QVQLVQSGAEVMKPGSSVKVSCKASGYTFSMYWLEWVRQAPGHGLEWMGEIDPGTFETNYNEKFKARVTFTADTSTSTAYMELSSLRSEDTAVYYCARFSHFSGSNYDYFDYWGQGTLVTVSS VL: EIVMTQSPATLSVSPGERATLSCRASQSIGTNIHWYQQKPGQAPRLLIYYASESISGIPARFSGSGSGTEFTLTISSLQSEDFAVYYCQQSWSWPTTFGGGTKVEIKT | – | 191 fold | 3.2 pM | – | – |
| C21 (Fab, V domains shown, also called parent Fab of TES-C21; murine TES-C21 Fab) VH: QVQLQQSGAELMKPGASVKISCKTTGYTFSMYWLEWVKQRPGHGLEWVGEISPGTFTTNYNEKFKAKATFTADTSSNTAYLQLSGLTSEDSAVYFCARFSHFSGSNYDYFDYWGQGTSLTVSS VL: DILLTQSPAILSVSPGERVSFSCRASQSIGTNIHWYQQRTDGSPRLLIKYASESISGIPSRFSGSGSGTEFTLNINSVESEDIADYYCQQSDSWPTTFGGGTKLEIK | ~0.05 µg/mL | – | – | – | ~0.05 µg/mL |
| murine anti-IgE monoclonal antibody TES-C21 (antibody, V domains shown, Murine parent antibody; also called murine mAb TES-C21; parent TES-C21) VH: QVQLQQSGAELMKPGASVKISCKTTGYTFSMYWLEWVKQRPGHGLEWVGEISPGTFTTNYNEKFKAKATFTADTSSNTAYLQLSGLTSEDSAVYFCARFSHFSGSNYDYFDYWGQGTSLTVSS VL: DILLTQSPAILSVSPGERVSFSCRASQSIGTNIHWYQQRTDGSPRLLIKYASESISGIPSRFSGSGSGTEFTLNINSVESEDIADYYCQQSDSWPTTFGGGTKLEIK | – | – | 614 pM | – | – |
